The record followed here is patent US9315837B2, “Desaturases of a green microalga and uses thereof” (Ben Gurion University of the Negev Research and Development …, priority 2010, dated 2016).

The test system of this assay is supplied fatty acids in S. cerevisiae strain W303. Description: Functional expression of PiELO1 in S. cerevisiae fed with fatty acids, GC of FAMEs. Type of assay: cell-based, Saccharomyces cerevisiae. The text has this:
The ORF encoding for PiELO1 was amplified using PfuUltra II fusion HS DNA polymerase (Stratagene, La Jolla, Calif.) with the forward primer, 5′-[…] (PUFAEL5RES1) (SEQ ID NO: 33), containing a restriction site (underlined) and a yeast translation consensus followed by ATG (double underlined) and the reverse primer 5′-[…] (PUFAEL3RES2) (SEQ ID NO: 34) containing a restriction site (underlined) and a stop codon (double underlined). The amplified sequence was then restricted with EcoRI and XbaI (NEB, Ipswich, Mass.). The expected bands were gel-purified with NucleoSpin Extract II purification kit (Machery-Nagel GmbH, Duren, Germany) and ligated into a EcoRI-Xba1 cut pYES2 vector, yielding YpPiELO1. Saccharomyces cerevisiae strain W303 was transformed with YpPiELO1 by the PEG/lithium acetate method. The yeast cells harboring the empty pYES2 vector were used as control. Transformants were selected by uracil prototrophy on yeast synthetic medium (YSM) lacking uracil (Invitrogen, Carlsbad, Calif.). For functional expression, a minimal selection medium containing 2% (w/v) raffinose was inoculated with the YpPiELO1-transformants and grown at 27° C. for 24 h in a water bath shaker. Five ml of sterile YSM, containing 1% (w/v) Tergitol-40 and 250 µM of the appropriate fatty acid was inoculated with raffinose-grown cultures to obtain an OD of 0.2 at 600 nm. Expression was induced by adding galactose to a final concentration of 2% (w/v) and cultures were further grown at 27° C. for 48 h. Cells were harvested by centrifugation, washed twice with 0.1% NaHCO3, freeze-dried and used for fatty acid analysis.
Fatty acid methyl esters (FAMES) were obtained by transmethylation of the freeze-dried P. incisa or yeast biomass, with dry methanol containing 2% H2SO4 (v/v) and heating at 80° C. for 1.5 h while stirring under an argon atmosphere. Gas chromatographic analysis of FAMES was performed on a Thermo Ultra Gas chromatograph (Thermo Scientific, Italy) equipped with PTV injector, FID detector and a fused silica capillary column (30 m×0.32 mm; ZB WAXplus, Phenomenex). FAMES were identified by co-chromatography with authentic standards (Sigma Chemical Co., St. Louis, Mo.; Larodan Fine Chemicals, Malmo, Sweden) and FAME of fish oil (Larodan Fine Chemicals). Each sample was analyzed in duplicates of three independent experiments. The structures of fatty acids were confirmed by GC-MS of their pyrrolidine derivatives [W. W. Christie, The analysis of fatty acids in: W. W. Christie (Ed.), Lipid analysis Isolation, separation, identification and structural analysis of lipids, vol. […]

B1: PiELO1: P. incisa Δ6 PUFA elongase, 289 amino acid residues, SEQ ID NO: 7 (protein, listed as Parietochloris incisa)
chain: MALTAAWHKYDAIVSRFVFDGLRRVGLQEIQGHPSVITAHLPFIASPTPQVTFVLAYLLIVVCGVAALRTRKSSAPREDPAWLRLLVQAHNLVLISLSAYMSSAACYYAWKYGYRFWGTNYSPKERDMGGLIYTFYVSKLYEFVDTLIMLLKGKVEQVSFLHVYHHASISTIWWAIAYVAPGGDAWYCCFLNSLVHVLMYTYYLLATLLGKDAKARRKYLWWGRYLTQFQMFQFVTMMLEAAYTWAYSPYPKFLSKLLFFYMITLLALFANFYAQKHGSSRAAKQKLQ
As for B1, the “elongation of supplied fatty acid” value runs as follows: (substrate 18:3ω6 (GLA), product DGLA, 20:3ω6) “elongated”; (substrate 18:4ω3 (STA), product 20:4ω3) “elongated”; (substrate ARA) “did not result in their elongation”; (substrate LA) “did not result in their elongation”.
